We go through 49 sequences from the domain aggregation screens of Martell et al. (2025).
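Note: 20 min heating vs room temperature control held 20 min.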

The nature of the data set: soluble fraction after stress (log2 fold change); higher = more stays soluble; pooled small domains, quantitative proteomics. The settings on record: stress: 75 degC.
Regarding “HMGSIGAMLSSPELYGKLATNPATRGFLSQPDFIAMLTDVQKNPDKFGSYMSDPRMMQVLSVALG”, the “soluble fraction (log2)” value was -0.231. For “HMGSIRDIIVQYLSKFDDPQPAAKIVEYVQQYRDTTESSIRSSMGSGDQFVQFSGGLYGLKDKTYAAWYSI” the value was -0.916; for “HMGSLKISNPVKDTLWIQGVDGLKSIEIYSSTGQLVKTILGNQGDVSSLPKGVYFLKINTPSESLTAKIIK”, -1.28; for “HMGSLPPPKDGTTIYVVKPGDSLWRISGKFFGNPLFWPRLWEINPNIDNPNKIYPGDVISLKP”, 0.24. As for “HMGSLVKLQSAAELHQAGRSAEAVPILLEVLATNPRLVDGWEILANALEKLGRLDEALAALKKTVALSPPG”, the “soluble fraction (log2)” value was -1.55. To “HMGSNENTIREYFDSLIASASKREIMDANPTMSQRTVERILQKLQAEGYVEKIGAARSTRYRRA” belongs -0.0404; to “HMGSQLYTLEVEADEKISLIENNPLLIQKIYLKDNNLFSYKIASSSKTEIASIEKELEKNPSIKRLETA”, -0.086; to “HMGSQQIEEGMRRLVASGALRPGASVPSVRDLARDLQVNPATVVRAYQRLVDAGLLVVRRGEGTFVAE”, -1.77.

In the case of “HMGSSLLSPKEREVLQLLAGNLSNKQIALAMGVSDETIKWHLRNLFGKLNAGGRKHLIDRARMLGLLAAA”, the “soluble fraction (log2)” value was -1.61. “HMGSVHDAATDRIREMILGGQFEPGERLRQDDLATSLGVSTMPVREALRQLQAEGLVVFYPRKGAVVAR”: the “soluble fraction (log2)” value is 0.168.

As for “HMGTAEDYLLPRRAEILSIIRDHEFANFDLIRRRFLAVNERTLRYDLKKLSDLGLIKKLGKTRGVYYRAAK”, the “soluble fraction (log2)” value was -1.84. To “HMGTAVKAPMPGTILKVNVTAGQSVKAGDIMFILEAMKMENEIVAPSDGTVSQVVAAKGSSVATDDVLAYL” belongs -0.586; to “HMGTDGLKDIVLEILKEHPNQLAELIDGKQKVLGFLVGQVMKKTNGAANPKEVNEIIQGEIKK”, 0.179. With “HMGTELSYSEFLNKVEAGEVTNVTIRGPEITFQTGNSSYTTYAPDDPKLIEHLTAKGVAIKAGP”, the “soluble fraction (log2)” value worked out at 0.608. To “HMGTGELLVHVIGAVHSPGVVRLPTGARVVDAIDAAGGAREDAQTEQLNLARLVDDGEQVRVPVVGESVD” belongs 0.081.

As to “HMGTGIKQVNVVSVIGQDEETAKTTLTNLGLKVNVTYATSTSDNGKVTKQSIDAGKTVDEGTSVTITVNKV”, the “soluble fraction (log2)” value was at least 1.04.

With “HMGTHSAEQVRAAIRAIVAAEDAANPLSDARITELLAMRGIAAARRTVMKYREQLGIPSSAKRRR”, the “soluble fraction (log2)” value was -1.94. Take “HMGTHVVQEGEYLDLIIEKTIPGSPIRKDLLRKAFVKLNPSAFGGRGNPNYIFARKKLKVPSVEDLKAVIF”: the “soluble fraction (log2)” value stood at 0.127. To “HMGTIEEYSKYLINQYFDSLKKPMDAMTTSEKIEIVKSLDKKGIFNLKGSVGELAKRFNTSEKTIYRYLSS” belongs -0.202; to “HMGTKRWELPRRVQQMATQHGKSISTAAAEELVSRSGENTRMLDNDLVKLAQMVEAPQIELADVERWIVR”, 0.207; to “HMGTLPSLAPSGEKTVRLPNLAGWSLRETMEILQKGGLQLLPIGSGISFKQSPPPGTTLNEGDAVTVWF”, 0.00884. “HMGTNTTGWIKIADDWKYIDSNGEYTVNDWRQSADGGWYYLGYNGNMLKNQTTPDGYYVDAEGLWDGMSPA”: the “soluble fraction (log2)” value was -0.54. With “HMGTPEQVVVSSVLKETNEIVLKWPADGFMAKYKMDNLNLNFEPVHGQGVMGYFIGSRLIKLELV”, the “soluble fraction (log2)” value was -1.43. With “HMGTPSAEELAFSAQKGNAVMRIMEIREKYIENGGQISDEERNEIERLIAIYYPKASIFDYLPMMG”, the “soluble fraction (log2)” value is -0.367.

Consider “HMGTSFEDIDRAVKSVRKPETDEAEKLHAGKTFKDIAETELFQKLTESFAGISDRVNEVIDLYTARAAE”, for which the “soluble fraction (log2)” value worked out at 0.188. Take “HMGTSSAEIAAELRAQIFAGELRPGEMLPSAREITGTWNVAIATASRVHALLRSEGLATPVPGVGTVVAT”: the “soluble fraction (log2)” value is 0.223. For the sequence “HMGTTAWISTKTANGSVNIRTGPGTGYGVIGWALNGDKLEVLSRGTSWHYVKLVKNGKIGYVSASYVSFTQ”, the “soluble fraction (log2)” value was -3.41. For “HMGTTKGVVDVTVPNGRASQHVKLVVIDDDGGRVVYDGTNAPGDRIVKSVSGSGNVRVQIYLNNALVQEQS” the value was -0.491; for “HMGTTMLEVPNFVGEVFKEIDPEKYPNLRLVDSDYTYSNEYEAGKVISQDPVARTQVAEGSTVKLVIS”, 0.319; for “HMGTVISVDKARSIALAKVPGASANDIRIHLDRDDGRQIYEGEIYYNRMEYEFEIDASTGTIIEWSAEHW”, -2.33. On to “HMGTVQSVDRALLLLSEIGREPGGLVDLSTRVRLATSTTGRILATLEHAGAVVRGDDGIYHIGPLVHGMVS”, for which the “soluble fraction (log2)” value is -2.04. For “HMGTYSKQDLLQLIGRYPDGIGKREINLAFSKGTKIRNLLNIELNELLNERLITLSQGGLYIKP” the value was -1.92; for “HMGVAFAPVEKIKHTKTGNELYAVKLAGRVEAEVFGQLRQKAKEYDGYYSKFSRAFLFSTPEDAEAFRAE”, -0.294.

Turning to “HMGVDIAEHDGQPAVSIRKGAAESVAQWVKDQGGTFPQEVEMTVQNVARAGGTPLVVARGRDVLGVIYLKD”, the “soluble fraction (log2)” value is -0.0119. In the case of “HMGVDKLTPREREVLALMAQGASNREIEGKLVLTAGAVSKHVANVFMKLGFSPEDENRRVKAVLAWLRTK”, the “soluble fraction (log2)” value is -2.86. For the sequence “HMGVGIEALAVEVDRIRQVLTGGGALSDIQLFSQLKALGEVKTALSSMTDPRARELEKRVAQLLEASLRT”, the “soluble fraction (log2)” value was -0.708.

For “HMGVKHKHKGAGELLAALRTMFPNSSVSTLRKMLTQGRVVLNGEVVHRAKHELTDGDTIEVLERQRAER”, the “soluble fraction (log2)” value worked out at 0.0384. “HMGVKIELNENEQAIFAAMQKQVEAVLPDLRAQFADMSNKAWDNSVKTLTKNNLLKVSKEAEILFIRL”: the “soluble fraction (log2)” value was -0.939. For the sequence “HMGVKTDKYYYQMATETRVNKHYGLSNQYIATLISEYPRSPLIPNASILSKKNNADLALIDQSINQR”, the “soluble fraction (log2)” value is -0.515. For “HMGVLSPRQSQILALVAQGLGNREIAERLHIAPTTARDHVQAIMRRLNVNSRAAAAVMGVKLGLI” the value was -1.92; for “HMGVNEGVNKLFKTIQETPGKRMPYYALATDVPEKTIERWLKQLREEGKIEFKGSAKTGGYFVIDK”, -0.000624. “HMGVRDIRIFERNNSFFVNAEIRGEAQLSVPITRTDYQLFKENKIDALSLVEKYYAEELNASNEMK”: the “soluble fraction (log2)” value was 0.234. To “HMGVSLNELAYRRFKQALVTLSYKPGEYLNTAQVMNDLDMGRTPINQAIHRLANEGLLQVIPRKGVMVS” belongs -2.24; to “HMGVTDLFAVLGFPRSPWLDAEELKQRHHALMADEASANSSPTILNEARRTLQNPALRIRHFLALEFPDH”, -0.425; to “HMGVYDLIYLGYGINVEKEELVDQNISIIRRYANIFDPNGDIKGSTNPTYASNTAVLFNEAKFIIDGYD”, -3.7. For the sequence “HMGWQPDPLTTRERLVAELATQASNAQIAEQLHLSVRTVEGHLAHVYTKLGITTRRELPAALAGAR”, the “soluble fraction (log2)” value is -1.55. Turning to “HMGWTTPAGIAVGMDKSVLQDAYGKEDDTFQDKGILYYQYFVHPSRMSGLSFGIKNDKIVSITAYMD”, the “soluble fraction (log2)” value is -2.02. As for “HMGYDDLEPFDANGRLRWSDQELVLAFGRHRGATLRTLELNDPSYLRWLLSGNGPLEQQDIQRLEQILES”, the “soluble fraction (log2)” value is -1.55. With “HMGYDLLFQQALGFHEQGRLNEAENIYRQILETAPNNPDILNLLGLIAQQKGLHAQAVDYFYQAIRL”, the “soluble fraction (log2)” value is -1.89.
